Experimental data: patent US20180319855A1, “GENETICALLY MUTATED AEQUORIN-BASED BIOSENSORS WITH EXTRA SENSITIVITY TO CALCIUM AND IMPROVED BIOLUMINESCENCE INTENSITY” (CENTRE NATIONAL DE LA RECHERCHE SCIENTIFIQUE (CNRS), priority 2015, published 2018)

Assay: Ca2+ sensitivity curves of reconstituted photoproteins (L/Lmax vs free Ca2+)
Assay type: biochemical
Settings: for affinity to calcium group relative to Aeq-wt / Relative intensity at pCa 6.5 / Relative intensity at pCa 7.2: CLZ-f; for affinity to calcium group relative to Aeq-wt: at pCa 6.5, FIG. 2; for Relative intensity at pCa 6.5 / Relative intensity at pCa 7.2: L/Lmax compared to Aeq-wt; for EC50: aequorin proteins reconstituted with CLZ-f, sigmoidal curve fit, mean ± SD, n at least 3, read-out: Calcium sensitivity, EC50
Description: For in vitro reconstitution, the purified and concentrated samples of apoaequorin and redquorin mutant proteins were buffer-exchanged to 50 mM Tris-HCl (pH 7.5), 150 mM NaCl, 10 mM EGTA, 5 mM ß-mercaptoethanol, supplemented with 5 μM CLZ-f or CLZ-native and incubated overnight at 4° C., in the dark. The next day, samples were passed through molecular weight cut-offs (AmiconUitra MWCO, 10K and 50K, from Millipore), then resuspended in Zero-Ca^2+ buffer (30 mM MOPS, 100 mM KCl and 10 mM EGTA, pH 7.2) for calcium affinity, emission decay kinetics and spectral analysis assays. As for in cellulo reconstitution, HEK cells transiently expressing the proteins of apoaequorin and aporedquorin mutants were washed twice with Hank's Balanced Salt Solution (HBSS) and incubated in the dark, with 4 μM of the desired CLZ diluted in OptiMEM I medium (Gibco), for 2-3h at 37° C. and 5% CO2. Cells were washed once and maintained in HBSS at 37° C. for 20 min before the experiment.
Functional Analysis of Aequorin Mutants and Fusions Ca^2+ Sensitivity Curves.
Purified and reconstituted samples with CLZ-f or CLZ-native already buffered-exchanged to zero-calcium buffer ensured to minimize calcium contamination that could interfere with the measurements. Fifteen microliter aliquot of photoprotein samples (concentration range, 50 to 90 ng/μl) was placed in a home-made luminometer and mixed with 300 μl solution containing the desired concentration of free-Ca^2+. The solutions of EGTA-buffered with varying free-Ca^2+ prepared according to the manufacturer instruction for the kit (Molecular Probes, Invitrogen). Integration of the luminescence emission (per second) was measured for 20 seconds (background) before injecting a solution with known [free-Ca^2+] and lasted until stable or decaying signal (at final-phase) was obtained. At this point, 400 μl of a saturating calcium solution (30 mM MOPS, 100 mM CaCl2, pH 7.2) was rapidly injected (less than 30 ms) and light integration continued until all aequorin had been consumed and light intensity had gone back to background signal. Luminescence intensity (L) at different [Ca^2+] was taken as the response peak value in case of decaying signal or as the stable value in case of stable emission. Lmax, was measured by integrating all remaining luminescence signal from that moment (L value) to the end of the experiment. The EC50 values were extracted from a sigmoidal dose-response fit (variable slope) using GraphPad Prism software.

Molecule	EC50 [nM]	affinity to calcium group relative to Aeq-wt	Relative intensity at pCa 6.5	Relative intensity at pCa 7.2
S157A: aequorin single mutant S157A, low calcium affinity (protein) SKLTSDFDNPRWIGRHKHMFNFLDVNHNGKISLDEMVYKASDIVINNLGATPEQAKRHKDAVEAFFGGAGMKYGVETDWPAYIEGWKKLATDELEKYAKNEPTLIRIWGDALFDIVDKDQNGAITLDEWKAYTKAAGIIQSSEDCEETFRVCDIDEAGQLDVDEMTRQHLGFWYTMDPACEKLYGGAVP	–	low	–	–
S157T: aequorin single mutant S157T, medium-low calcium affinity (protein) SKLTSDFDNPRWIGRHKHMFNFLDVNHNGKISLDEMVYKASDIVINNLGATPEQAKRHKDAVEAFFGGAGMKYGVETDWPAYIEGWKKLATDELEKYAKNEPTLIRIWGDALFDIVDKDQNGAITLDEWKAYTKAAGIIQSSEDCEETFRVCDIDETGQLDVDEMTRQHLGFWYTMDPACEKLYGGAVP	–	medium-low	–	–
Q140R: aequorin single mutant Q140R, low calcium affinity (protein) SKLTSDFDNPRWIGRHKHMFNFLDVNHNGKISLDEMVYKASDIVINNLGATPEQAKRHKDAVEAFFGGAGMKYGVETDWPAYIEGWKKLATDELEKYAKNEPTLIRIWGDALFDIVDKDQNGAITLDEWKAYTKAAGIIRSSEDCEETFRVCDIDESGQLDVDEMTRQHLGFWYTMDPACEKLYGGAVP	–	low	–	–

More lines, main results first:

EC50 [nM]	Molecule	affinity to calcium group relative to Aeq-wt	Relative intensity at pCa 6.5	Relative intensity at pCa 7.2
337 ± 10	QT + ND: apoaequorin double mutant Q159T + N121D (SEQ ID NO:14) (protein, mutant aequorin) SKLTSDFDNPRWIGRHKHMFNFLDVNHNGKISLDEMVYKASDIVINNLGATPEQAKRHKDAVEAFFGGAGMKYGVETDWPAYIEGWKKLATDELEKYAKNEPTLIRIWGDALFDIVDKDQDGAITLDEWKAYTKAAGIIQSSEDCEETFRVCDIDESGTLDVDEMTRQHLGFWYTMDPACEKLYGGAVP	–	14.4	12.2
279	QT + AD: apoaequorin double mutant Q159T + A123D (SEQ ID NO:16) (protein, mutant aequorin) SKLTSDFDNPRWIGRHKHMFNFLDVNHNGKISLDEMVYKASDIVINNLGATPEQAKRHKDAVEAFFGGAGMKYGVETDWPAYIEGWKKLATDELEKYAKNEPTLIRIWGDALFDIVDKDQNGDITLDEWKAYTKAAGIIQSSEDCEETFRVCDIDESGTLDVDEMTRQHLGFWYTMDPACEKLYGGAVP	–	22.8	10.0
281 ± 25	QT + AT: apoaequorin double mutant Q159T + A179T (SEQ ID NO:18) (protein, mutant aequorin) SKLTSDFDNPRWIGRHKHMFNFLDVNHNGKISLDEMVYKASDIVINNLGATPEQAKRHKDAVEAFFGGAGMKYGVETDWPAYIEGWKKLATDELEKYAKNEPTLIRIWGDALFDIVDKDQNGAITLDEWKAYTKAAGIIQSSEDCEETFRVCDIDESGTLDVDEMTRQHLGFWYTMDPTCEKLYGGAVP	–	29.0	14.0
